Measured values as given in WO2022196697A1 (dated 2022).

What was measured:
[1] = target: T1, HER2 immunoprecipitated from the membrane fraction of HER2-type breast cancer cells (HER2 solution) (human, UniProt P04626 23-1255, glycosylated; also tested after PNGase F treatment); experiment: lectin array with immunoprecipitated HER2, with and without PNGase F; confirmed by Western and lectin blotting
T1 construct: Not fractionated by lectin; also called breast cancer cell-derived HER2; unfractionated HER2

[2] = target: T2, HER2 immunoprecipitated from the membrane fraction of cardiomyocytes (human, UniProt P04626 23-1255); experiment: lectin blot of immunoprecipitated HER2 after electrophoresis (legend of Fig. 3)
T2 construct: also called cardiomyocyte-derived HER2; myocardial cell-derived HER2

Row | binding result [1] | binding result [2] | Binder
1 | binds | binds | AOL (Aspergillus oryzae lectin) (other, UniProt Q2UNX8 1-311, looked up, also called biotinylated AOL) MSTPGAQEVLFRTGIAAVNSTNHLRVYFQDSHGSIRESLYESGWANGTAKNVIAKAKLGTPLAATSKELKNIRVYSLTEDNVLQEAAYDSGSGWYNGALAGAKFTVAPYSRIGSVFLAGTNALQLRIYAQKTDNTIQEYMWNGDGWKEGTNLGVALPGTGIGVTCWRYTDYDGPSIRVWFQTDNLKLVQRAYDPHTGWYKELTTIFDKAPPRCAIAATNFNPGKSSIYMRIYFVNSDNTIWQVCWDHGQGYHDKRTITPVIQGSEIAIISWEGPELRLYFQNGTYVSAISEWTWGKAHGSQLGRRALPPAE
2 | binds | binds | AAL (Aleuria aurantia lectin) (other, UniProt P18891 2-313, looked up, also called AAL lectin) PTEFLYTSKIAAISWAATGGRQQRVYFQDLNGKIREAQRGGDNPWTGGSSQNVIGEAKLFSPLAAVTWKSAQGIQIRVYCVNKDNILSEFVYDGSKWITGQLGSVGVKVGSNSKLAALQWGGSESAPPNIRVYYQKSNGSGSSIHEYVWSGKWTAGASFGSTVPGTGIGATAIGPGRLRIYYQATDNKIREHCWDSNSWYVGGFSASASAGVSIAAISWGSTPNIRVYWQKGREELYEAAYGGSWNTPGQIKDASRPTPSLPDTFIAANSSGNIDISVFFQASGVSLQQWQWISGKGWSIGAVVPTGTPAGW
